What was measured:
Assay type in all cases: cell-based
[1] = biological target: T1, cell-surface tissue factor on rat smooth muscle cells (Rattus norvegicus, UniProt P42533); test: Dose-dependent cell-surface chromogenic activity on rat smooth muscle cells
T1 construct: endogenous in cells; host or cells: rat vascular smooth muscle cells
T1 sequence (P42533 29-295): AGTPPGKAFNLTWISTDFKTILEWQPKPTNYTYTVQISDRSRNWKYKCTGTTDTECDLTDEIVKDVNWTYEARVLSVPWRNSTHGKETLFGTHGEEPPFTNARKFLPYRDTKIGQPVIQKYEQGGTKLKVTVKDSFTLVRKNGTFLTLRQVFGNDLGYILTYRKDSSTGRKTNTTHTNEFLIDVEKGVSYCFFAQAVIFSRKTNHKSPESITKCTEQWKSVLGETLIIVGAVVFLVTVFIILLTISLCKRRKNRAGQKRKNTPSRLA
Procedure: Rat vascular smooth muscle cells were plated into 96-well culture dishes at 4,000 cells per well in growth medium supplemented with 1% fetal calf serum (as in Table 4 without 10% fetal calf serum). […] The cells were incubated with the Factor VII mixtures for 2 hours at 37° C. After incubation, the cells were washed and incubated with 50 μl of 200 nM Factor X in tris buffered saline for 5 minutes at room temperature. Each well had 25 μl of 0.5 M EDTA and 25 μl of […] S-2222 (Kabi Pharmacia) added to it, and the plates were incubated for 40 minutes at room temperature. Chromogenic activity was analyzed at 405 nm in a microplate reader as described above.

[2] = biological target: T2, cell-surface tissue factor on rat vascular smooth muscle cells (Rattus norvegicus, UniProt P42533); test: Inhibition of cell-surface chromogenic activity by DEGR-Factor VIIa; settings: 10 nM Factor VIIa; cells stimulated with 10% fetal calf serum
T2 construct: endogenous in cells; host or cells: rat vascular smooth muscle cells
T2 sequence (P42533 29-295): T1 sequence (P42533 29-295)
Procedure: Rat vascular smooth muscle cells were plated into 96-well culture dishes as described above. The cells were cultured for 72 hours in serum free media as described above and treated with the addition of 10% fetal calf serum for 6 hours to stimulate tissue factor expression. […] The cells were incubated for 2 hours at 37° C., then washed with HEPES buffer. After washing, the cells were incubated for 5 minutes with […] per well of 200 nM Factor X in Tris-buffered saline supplemented with 5 mM CaCl2. Twenty-five microliters of 0.5 M EDTA and 25 μl of S-2222 (800 μM) chromogenic substrate (Kabi Pharmacia) were added to each well. The cells were incubated at room temperature for 40 minutes. Chromogenic activity was analyzed at 405 nm as described above.

[3] = biological target: T2, cell-surface tissue factor on rat vascular smooth muscle cells; test: Factor Xa generation on rat smooth muscle cells (S-2222); settings: 10 nM Factor VIIa
Procedure: Vascular smooth muscle-cells were analyzed for the presence of cell-surface tissue factor by measuring the ability of the cells to stimulate the conversion of Factor X to Factor Xa using a chromogenic substrate that is specific for Factor Xa.
Rat vascular smooth muscle cells (Clowes et al., J. Clin. Invest. 93:644-651 (1994)) were plated into 96-well culture dishes (American Scientific Products, Chicago, Ill.) at 8,000 cells per well in growth media (Table 4).
After a 48 hour incubation at 37° C. the medium was changed to serum free medium (Table 5).
The cells were incubated 72 hours at 37° C. After incubation, either PDGF-BB (10 ng/ml) or 10% fetal calf serum was added to the cells to stimulate tissue factor expression (Taubman et al., J. Clin. Invest, 21:547-552, 1993). A parallel set of cells received neither PDGF nor serum to monitor for intrinsic activity of unstimulated cells. […] The cells were incubated for 2 hours at 37° C. and washed with HEPES buffer (10 mM HEPES, 137 mM NaCl, 4 mM KCl, 5 mM CaCl2, 11 mM glucose, 0.1% BSA). After washing, cells were incubated for 5 min with 50 μl per well of 200 nM plasma-purified human Factor X in a Tris-buffered saline supplemented with 5 mM CaCl2. Twenty-five microliters of 0.5 M EDTA and 25 μl of an 800 μM solution of S-2222 chromogenic substrate (Kabi Pharmacia, Franklin, Ohio) were added to each well. The plates were incubated for 40 min at room temperature, then analyzed at 405 nm using a THERMOMAX microplate reader (Molecular Devices, Menlo Park, Calif.).

“Factor VIIa: Recombinant human Factor VIIa, activated two-chain form [reference compound]” was tested, and the OD405 ([1]; Factor VIIa 1.56 nM alone) was “.058”, the OD405 ([1]; Factor VIIa 6.25 nM alone) was “.111” and the OD405 ([1]; Factor VIIa 25.00 nM alone) was “.154”. The OD405 ([1]; Factor VIIa 100.00 nM alone) was “.208”, the OD405 ([1]; Factor VIIa .10 nM alone) was “.005” and the OD405 ([1]; Factor VIIa .39 nM alone) was “.025”. The OD405 [2] was “.342”, the OD405 ([3]; Intrinsic (unstimulated cells)) was “.247” and the OD405 ([3]; cells stimulated with 10% FCS) was “.342”. For the same substance, the OD405 ([3]; cells stimulated with PDGF-BB (10 ng/ml)) was “.360”.

— patent publication US20040087498A1, “Modified factor VII” (Novo Nordisk Health Care AG, priority 1991, published 2004)
